Test system: MS2 coat protein
Test: apparent KD of MS2 coat protein; designed switch direction (-1 OFF switch, 1 ON switch): -1; higher = weaker reporter binding
Outline: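 Designed RNA switches were transcribed on Illumina chips by stalled E. coli RNA polymerase and titrated with SNAP-549-labelled MS2 coat protein from 0.7 or 1.5 nM, doubling to 3 µM. Step length ran from 0.8–1.5 h at the lowest concentration to 10–20 min at the highest. The apparent KD is the median over clusters for each design, from curve-fitted normalised cluster fluorescence.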

[1] = input ligand: microRNA oligo, concentration not stated
[2] = Eterna round: R95, input ligand: FMN 200 uM
[3] = Eterna round: R95, input ligand: microRNA oligo, concentration not stated
[4] = Eterna round: R95, input ligand: none

Sequence	apparent KD of MS2 coat protein (input ligand: FMN 200 uM) [µM]	apparent KD of MS2 coat protein [1] [µM]	apparent KD of MS2 coat protein (input ligand: none) [µM]	apparent KD of MS2 coat protein [2] [µM]	apparent KD of MS2 coat protein [3] [µM]	apparent KD of MS2 coat protein [4] [µM]
AGAAGUAGAAACCGAUCCUACAUGAGGAUCACCCAUGUAGCAAGACGUGCACGCGAAGCUCGUCAGACUACCAGAAG [solution 24] (Eterna round: R96, puzzle: Sensor v2, turn-off variant)	0.462	0.288	0.345			
AGAAGUAGUAACCGAUCCUACAUGAGGAUCACCCAUGUAGCCAGACGUGCACGCGAAGCUCGUCAGACUACCAGAUG [salish99_TOv1_r3_026] (puzzle: Sensor v3, turn-off variant 1)				0.618	0.447	0.398
AGAAGUAGUAGCCGAUCCUACAUGAGGAUCACCCAUGUAGCUAGACGUGCACGCGAUGCUCGUCAGACUACCAGAUG [salish99_TOv1_r3_031] (puzzle: Sensor v3, turn-off variant 1)				0.131	0.12	0.155
AGACAGUCAGGAUAUACAUGAGGAUCACCCAUGUUGAGAUGAGAAAGGGCAGGAAGAGGUAGAAGGGACAAGAA [JR_Exclu3_Sub035] (puzzle: Exclusion 3)				0.0283	0.0192	0.0248
AGACGGAGAAAAGGAUAUGAGACACUAGACGUCUCAGAAGGUUUAGCCAGUAGCUCCAACAUGAGGAUCACCCAUGUGGUCGUA [Eternabot solution 41] (Eterna round: R96, puzzle: Exclusion NG 1)	0.05	0.108	0.184			
AGAGCACAUGAGGAUCACCCAUGUCAGGAUAUGCAAGAAAGAAAGAAAGAAAGAAAGAGCAGAAGGGACAAAUA [?solved?] (puzzle: Exclusion 1)				0.0349	0.0342	0.0432
AGAGCCGUUGUAGGAUAUGCCCUCGGGUGAUGCCGGUCGCCACAUGAGGAUCACCCAUGUAGCGGGCAGAAGGGCAAACUCAGU [Eternabot solution 43] (Eterna round: R96, puzzle: Exclusion NG 2)	0.0266	0.0134	0.0185			
AGAGUAAUGCGAGGAUAUACAUGAGGAUCACCCAUGUGGUGGUGUGAGGCAAAGCCUCACACCAUGUAGAAGGCGCAUUACUCA [Mat - Exclusion NG 2 - Mod of JL - D21] (Eterna round: R96, puzzle: Exclusion NG 2)	0.155	0.0352	0.0393			
AGAGUGCUGCGAGGAUAUACAUGAGGAUCACCCAUGUUUACCUGUGAGGCAAAGCCUCACAGGUAGUAGAAGGCGCAGUACUCA [Mat - Exclusion NG 2 - Mod of JL - D43] (Eterna round: R96, puzzle: Exclusion NG 2)	0.0146	0.0143	0.0123			
AGAUCACAUGAGGAUCACCCAUGUCAGGAUAUGAUACUAUGUACUUCGGUACAUAGUAUCAGAAGGGAUAUAAA [Ex1-3: 68] (puzzle: Exclusion 1)					0.0751	
AGAUCCUGAGUCAGGAUAUAGAGGCGGUAGCCUGGCUAGAAGGGACAUGAGGAUCACCCAUGUGGGUUCUUGCC [Gecela] (puzzle: Brourd's mod of Exclusion 4)					0.0127	
AGAUCGUCAGGAUAUACAUGAGGAUCACCCAUGUACUGUCUAAAUUUGACUGUAAGAUGUAGAAGGGACGAUCG [Exclusion 3 (MOD9 of #1 Marzena11)] (Eterna round: R97, puzzle: Exclusion 3)	0.0673		0.0258			
AGAUCUAUCACGAAAGUGAUAGAUCAAAUUAGUUUUUAAACAUGAGGAUCACCCAUGUCCUAGUGGGCUAGUCUUAU [Mat - Sensor v2 - var 2 - Mod - D135] (Eterna round: R96, puzzle: Sensor v2, turn-off variant 2)	0.236	0.167	0.239			
AGAUGGCGAGGAUAUACAUGAGGAUCACCCAUGUGAAGAGAUAAAGUGAGGAAGAAAAGUAGAAGGCGCUGUCA [Mat - Exclusion 3 - Mod of Salish D24] (puzzle: Exclusion 3)				0.199	0.0514	0.0409
AGAUGUAGAUACCGAUCCUACAUGAGGAUCACCCAUGUAGCUAGACGUGCACGCGUAGCUCGUCAGACUACCAGAAG [salish99_TOv1_r3_085] (Eterna round: R96, puzzle: Sensor v3, turn-off variant 1)	0.461	0.253	0.449			
AGAUGUAGAUACCGAUCCUACAUGAGGAUCACCCAUGUAGCUAGACGUGCACGCGUAGCUCGUCAGACUACCAGAAG [salish99_TOv1_r3_085] (puzzle: Sensor v3, turn-off variant 1)				0.292	0.147	0.223
AGAUGUAGAUACCGAUCCUACAUGAGGAUCACCCAUGUAGCUAGACGUGCGGGCGGCGCUCGUCAGACUACCAGUAG [salish99_TOv1_r3_094] (puzzle: Sensor v3, turn-off variant 1)				0.271	0.214	0.371
AGAUUAUGAGGAUAUCGAGUUUAGUACAUGAGGAUCACCCAUGUUAUCCAGGUCUCGUUUCGAGAAGGCAUGAUUC [LRO-Ex5-09] (puzzle: Exclusion 5)					0.0353	
AGCAAGCAAUAGGAUAUGCCUGCAAGCUUGCAUGCAGAAGGAUUGACUUGAGGAUCACCCAAGUGGGCUCCUAA [Erbexe] (Eterna round: R97, puzzle: Exclusion 6)	0.319		0.0495			
AGCAGACGAGGAUAUAAAUUUGAUAACAUGAGGAUCACCCAUGUGAUCGAUAGAUCAAAUUUAGAAGGUGUCUGCU [E5/7-B1] (Eterna round: R97, puzzle: Exclusion 5)	0.512		0.49			
AGCAGACGAGGAUAUAGAUUUAGAUACAUGAGGAUCACCCAUGUAUAUAUGUAUUUAGAUUUAGAAGGCGUCUGCU [E5/15-A1] (Eterna round: R97, puzzle: Exclusion 5)	0.222		0.219			
AGCAUGUGAGGAUAUGCGGACUCCGGUAAAGCUGGAGUCCAGUAGAAGGCACAUGAGGAUCACCCAUGUGAGAU [Uszadi] (Eterna round: R96, puzzle: Exclusion 4)	0.317	0.0533	0.0632			

Source: the supplement of paper PMC9170038
